{
  "source": "paper PMC8488244",
  "key": {"[1]": {"biological_target": "GmCHS7:PDZlig-CeGFP (Glycine max) (UniProt P30081)", "sequence (P30081 whole entry)": "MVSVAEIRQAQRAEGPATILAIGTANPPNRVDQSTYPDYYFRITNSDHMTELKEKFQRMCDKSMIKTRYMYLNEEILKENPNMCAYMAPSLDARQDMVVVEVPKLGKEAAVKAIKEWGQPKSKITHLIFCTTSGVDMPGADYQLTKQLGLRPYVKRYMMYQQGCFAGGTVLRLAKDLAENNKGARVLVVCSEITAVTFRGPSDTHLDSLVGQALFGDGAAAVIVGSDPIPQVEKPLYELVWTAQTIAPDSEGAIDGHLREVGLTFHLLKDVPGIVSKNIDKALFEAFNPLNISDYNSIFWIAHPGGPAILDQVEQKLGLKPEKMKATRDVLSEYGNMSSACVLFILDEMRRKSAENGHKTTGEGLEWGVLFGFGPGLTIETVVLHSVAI"}, "[2]": {"biological_target": "GmCHS7:PDZlig-CeGFP (Glycine max) (UniProt P30081)", "remark": "listed apart in the source"}},
  "data": [
    {"substance": "GuCHR:PDZ-NeGFP (from UniProt Q61234 81-164)", "values": [
      {"measurement": "CHR ratio (CHR product to total CHS product) in E. coli BL21(DE3)-pYH153", "setting": "[1]", "value": 54.7, "unit": "%"},
      {"measurement": "titer of apigenin in strain DHF-2 (pYH153) compared to DHF-1 (pYH141)", "setting": "[2]", "value": 1.1, "unit": "fold"}
    ]}
  ]
}
